Experiment [1] deals with T1, cynomolgus IL-17A (cynomolgus, UniProt Q16552 24-155 (human entry), limits assumed).
T1 construct: also called cyno IL-17A; cynoIL-17A
T1 chain: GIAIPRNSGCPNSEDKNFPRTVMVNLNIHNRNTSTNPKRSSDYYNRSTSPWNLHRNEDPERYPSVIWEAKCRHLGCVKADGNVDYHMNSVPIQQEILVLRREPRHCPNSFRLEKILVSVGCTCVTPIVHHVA
The experiment in a line: SPR Biacore 3000, antibody captured, IL-17 in solution. (SPR reads the build-up and loss of mass on a sensor chip optically.)
Protocol: (§1) Affinity measurements using Surface Plasmon Resonance (SPR) were performed using a Biacore 3000 optical biosensor (Biacore).

Experiment [2] has as its target T2, human IL-17A (human, UniProt Q16552 24-155).
T2 sequence: T1 chain with A3T, S8P, S34N, V77I, K78N, R104P
Nature of the experiment: binding ELISA, IL-17A protein coated on micro-titer plate, serial dilutions of labeled mAb1926, 37 C 2 h. On the technique in general: An ELISA detects its analyte on a solid surface through an enzyme-linked reagent.
Description: Human, mouse and rat IL-17A proteins were coated on the micro-titer plates.

The target of experiment [3] is T1, cynomolgus IL-17A. The experiment in a line: cell-based or functional assay.
The target of experiment [4] is T1, cynomolgus IL-17A. The experiment in a line: competition ELISA: mAb against biotinylated cyno IL-17A binding to coated IL-17RA-Fc.
Protocol: Clear maxisorp plates were coated with 100 μl/well of 2.5 μg/ml human IL-17RA-Fc (R&D Systems, Minneapolis, Minn.) in 0.1 M sodium carbonate-bicarbonate buffer, pH 9.4 and incubated overnight at 4° C. […] The signal was detected with 100 μl of 1:10,000 dilution of 1 mg/ml SA-HRP (Jackson Immunoresearch, West Grove, Pa.) for 20 minutes at room temperature (RT) followed by 100 μl/well of OPD substrate (Sigma-Aldrich Corp., St. Louis, Mo.).
For experiment [5], the target named is T1, cynomolgus IL-17A. The experiment in a line: SPR Biacore 3000, Fab captured, IL-17 in solution.
Protocol: as §1

Residue numbers refer to the chain shown, from its start.

B1: mAb1926 (antibody, human IgG1, lambda, V domains shown)
VH: QVQLLESGGGLVQPGGSLRLSCAASGFTFSSYAMSWVRQAPGKGLEWVSTISMTSGFTYYADSVKGRFTISRDNSKNTLYLQMNSLRAEDTAVYYCARQLMLDVWGQGTLVTVSS
VL: QSVLTQPPSVSVAPGQTARISCSGDNLGDKYANWYQQKPGQAPVLVIYDDIDRPSGIPERFSGSNSGNTATLTISGTQAEDEADYYCGSYDFFLGMIVFGGGTKLTVLG
notes: Framework-engineered mAb; also called mAbtr1926; engineered form of MOR7700
Regarding B1, in experiment [1], the Kd (usually the concentration at which binding is half-saturated) worked out at 0.018 nM and the Stoichiometry was determined as 2.3 dimers per anti-IL-17. Besides, the binding result in experiment [2] was “binds”. For the same molecule, in experiment [3], the “IL-6 production (NHDF), IC50” value was found to be 0.067 nM. Moreover, in experiment [4], the 50% inhibitory concentration (IC50) (as a rule, the point on the concentration scale where inhibition reaches its midpoint) is 0.053 nM.

B2: Fab6468, a recombinant His6-tagged Fab of mAb6785 (Fab, V domains shown)
VH: B1 VH with M53L, M101T
VL: B1 VL
The molecule B2 showed a Kd in experiment [5] of 0.205 nM.

The record behind these values is patent US20110236390A1 (Janssen / Centocor, published 2011).
